Laboratory results published in article PMC11749100, “Blockade of Arf1-mediated lipid metabolism in cancers promotes tumor infiltration of cytotoxic T cells via the LPE-PPARγ-NF-κB-CCL5 pathway”.

Legend:
p65 (NF-kB) = p65 (NF-kB) (UniProt Q04207 1-549); test: EMSA; Beyotime GS009 EMSA kit; 1 uL protein + 2 uL DNA, 20 min at room temperature; 4% non-denaturing PAGE; buffer, salt and pH not stated; settings: protein: recombinant; tags: His (pET-21b(+)); blunt
PPARγ = PPARγ (mouse, UniProt P37238 1-505); test: as above; settings: protein: recombinant; blunt

Sequence of p65 (NF-kB) (Q04207 whole entry): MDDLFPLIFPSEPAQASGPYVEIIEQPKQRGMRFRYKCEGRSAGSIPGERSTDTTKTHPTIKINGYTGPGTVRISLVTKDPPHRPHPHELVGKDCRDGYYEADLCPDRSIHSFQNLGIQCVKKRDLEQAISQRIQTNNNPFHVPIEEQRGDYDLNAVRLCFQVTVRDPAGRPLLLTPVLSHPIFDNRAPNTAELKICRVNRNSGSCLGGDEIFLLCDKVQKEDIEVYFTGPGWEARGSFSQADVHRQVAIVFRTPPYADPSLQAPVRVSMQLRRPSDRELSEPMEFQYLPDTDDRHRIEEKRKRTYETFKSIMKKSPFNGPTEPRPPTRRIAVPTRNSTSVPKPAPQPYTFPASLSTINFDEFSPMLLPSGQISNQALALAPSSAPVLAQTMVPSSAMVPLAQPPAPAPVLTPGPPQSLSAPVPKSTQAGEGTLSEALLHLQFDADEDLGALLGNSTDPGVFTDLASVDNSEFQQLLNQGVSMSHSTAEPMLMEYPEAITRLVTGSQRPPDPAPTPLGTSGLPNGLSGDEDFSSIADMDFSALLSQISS

B1: CCL5 promoter probe (dsDNA)
DNA 1: GTCTTTTGTGGAAACTCCCCAAG
DNA 2: CTTGGGGAGTTTCCACAAAAGAC
B1: binds (p65 (NF-kB)); no binding (PPARγ).
